Measured values as given in patent publication US20240034774A1 (Gilead, published 2024).
Numbering of substitutions follows the chain as printed.

B1: Antibody A-4 (antibody, human IgG1, kappa)
heavy: QVQLLQSGAAVTKPGASVRVSCEASGYNIRDYFIHWWRQAPGQGLQWVGWINPKTGQPNNPRQFQGRVSLTRHASWDFDTFSFYMDLKALRSDDTAVYFCARQRSDYWDFDVWGSGTQVTVSSASTKGPSVFPLAPSSKSTSGGTAALGCLVKDYFPEPVTVSWNSGALTSGVHTFPAVLQSSGLYSLSSVVTVPSSSLGTQTYICNVNHKPSNTKVDKKVEPKSCDKTHTCPPCPAPELLAGPDVFLFPPKPKDTLMISRTPEVTCVVVDVSHEDPEVKFNWYVDGVEVHNAKTKPREEQYNSTYRVVSVLTVLHQDWLNGKEYKCKVSNKALPAPEEKTISKAKGQPREPQVYTLPPSREEMTKNQVSLTCLVKGFYPSDIAVEWESNGQPENNYKTTPPVLDSDGSFFLYSKLTVDKSRWQQGNVFSCSVLHEALHSHYTQKSLSLSPGK
light: DIQMTQSPSSLSASVGDTVTITCQANGYLNWYQQRRGKAPKLLIYDGSKLERGVPSRFSGRRWGQEYNLTINNLQPEDIATYFCQVYEFVVPGTRLDLKRTVAAPSVFIFPPSDEQLKSGTASVVCLLNNFYPREAKVQWKVDNALQSGNSQESVTEQDSKDSTYSLSSTLTLSKADYEKHKVYACEVTHQGLSSPVTKSFNRGEC
B2: Antibody A-5 (antibody, human IgG1, kappa)
heavy: B1 heavy with A242G, A336L
light: B1 light
B3: Antibody A-2 (antibody, human IgG1, kappa)
heavy: B1 heavy with A336L, L434M, S440N
light: B1 light
B4: Antibody A-6 (antibody, human IgG1, kappa)
heavy: B1 heavy with A242G, D245S, F249L, R298P, Y306L, V311I, E338I, P402L
light: B1 light

Biological target: HIV-1 envelope glycoprotein gp120 of viral isolate 92US657 (HIV-1)
Assay: cell-based or functional assay

B1 and B2 are within 1.5-fold of each other in “ADCC EC50, NK Donor 1” value: 0.6 mg/L for the first, 0.57 mg/L for the second.

First: B3
Second: B4
The “ADCC EC50, NK Donor 1” value of the first is 7.3-fold lower: 0.54 mg/L for the first, 3.93 mg/L for the second.

B1 and B2 are within 1.5-fold of each other in “ADCC EC50, NK Donor 2” value: 1.21 mg/L for the first, 0.83 mg/L for the second.

B3 and B4 are within 1.5-fold of each other in “ADCC EC50, NK Donor 2” value: 0.81 mg/L for the first, 1.21 mg/L for the second.

Compared with B1, B2 is 2.2-fold lower in “ADCC EC50, NK Donor 3” value: 1.64 mg/L for the first, 0.76 mg/L for the second.

First: B3
Second: B4
The “ADCC EC50, NK Donor 3” value of the first is 2.8-fold lower: 1.13 mg/L for the first, 3.21 mg/L for the second.

First: B1
Second: B2
The “ADCC Emax, NK Donor 1” value of the first is lower: 52% for the first, 58% for the second.

Going from B3 to B4, the “ADCC Emax, NK Donor 1” value falls from 59% to 54%.

First: B1
Second: B2
The “ADCC Emax, NK Donor 2” value of the first is lower: 53% for the first, 61% for the second.

Compared with B3, B4 is higher in “ADCC Emax, NK Donor 2” value: 51% for the first, 53% for the second.

Compared with B1, B2 is higher in “ADCC Emax, NK Donor 3” value: 50% for the first, 61% for the second.

Compared with B3, B4 is lower in “ADCC Emax, NK Donor 3” value: 56% for the first, 52% for the second.

Biological target: HIV-1 envelope glycoprotein gp120 of viral isolate 92US712 (HIV-1)
Assay: cell-based or functional assay

B1 and B2 are within 1.5-fold of each other in “ADCC EC50, NK Donor 1” value: 0.2 mg/L for the first, 0.19 mg/L for the second.

Compared with B3, B4 is 1.5-fold higher in “ADCC EC50, NK Donor 1” value: 0.18 mg/L for the first, 0.27 mg/L for the second.

First: B1
Second: B2
The “ADCC EC50, NK Donor 2” value of the first is 1.6-fold higher: 0.13 mg/L for the first, 0.08 mg/L for the second.

Compared with B3, B4 is 6.8-fold higher in “ADCC EC50, NK Donor 2” value: 0.08 mg/L for the first, 0.54 mg/L for the second.

First: B1
Second: B2
The “ADCC EC50, NK Donor 3” value of the first is 4.4-fold higher: 0.4 mg/L for the first, 0.09 mg/L for the second.

B3 and B4 are within 1.5-fold of each other in “ADCC EC50, NK Donor 3” value: 0.2 mg/L for the first, 0.18 mg/L for the second.

Compared with B1, B2 is higher in “ADCC Emax, NK Donor 1” value: 78% for the first, 79% for the second.

Compared with B3, B4 is lower in “ADCC Emax, NK Donor 1” value: 76% for the first, 68% for the second.

B1 and B2 are the same in “ADCC Emax, NK Donor 2” value: 61% for the first, 61% for the second.

Compared with B3, B4 is lower in “ADCC Emax, NK Donor 2” value: 60% for the first, 54% for the second.

Compared with B1, B2 is higher in “ADCC Emax, NK Donor 3” value: 64% for the first, 66% for the second.

Going from B3 to B4, the “ADCC Emax, NK Donor 3” value falls from 60% to 51%.
